Reference: IntAct's records for PubMed 17540176

B1: Serine/threonine-protein phosphatase 2A 65 kDa regulatory subunit A beta isoform (Homo sapiens), P30154 (parent)
chain: MAGASELGTGPGAAGGDGDDSLYPIAVLIDELRNEDVQLRLNSIKKLSTIALALGVERTRSELLPFLTDTIYDEDEVLLALAEQLGNFTGLVGGPDFAHCLLPPLENLATVEETVVRDKAVESLRQISQEHTPVALEAYFVPLVKRLASGDWFTSRTSACGLFSVCYPRASNAVKAEIRQQFRSLCSDDTPMVRRAAASKLGEFAKVLELDSVKSEIVPLFTSLASDEQDSVRLLAVEACVSIAQLLSQDDLETLVMPTLRQAAEDKSWRVRYMVADRFSELQKAMGPKITLNDLIPAFQNLLKDCEAEVRAAAAHKVKELGENLPIEDRETIIMNQILPYIKELVSDTNQHVKSALASVIMGLSTILGKENTIEHLLPLFLAQLKDECPDVRLNIISNLDCVNEVIGIRQLSQSLLPAIVELAEDAKWRVRLAIIEYMPLLAGQLGVEFFDEKLNSLCMAWLVDHVYAIREAATNNLMKLVQKFGTEWAQNTIVPKVLVMANDPNYLHRMTTLFCINALSEACGQEITTKQMLPIVLKMAGDQVANVRFNVAKSLQKIGPILDTNALQGEVKPVLQKLGQDEDMDVKYFAQEAISVLALA
partner: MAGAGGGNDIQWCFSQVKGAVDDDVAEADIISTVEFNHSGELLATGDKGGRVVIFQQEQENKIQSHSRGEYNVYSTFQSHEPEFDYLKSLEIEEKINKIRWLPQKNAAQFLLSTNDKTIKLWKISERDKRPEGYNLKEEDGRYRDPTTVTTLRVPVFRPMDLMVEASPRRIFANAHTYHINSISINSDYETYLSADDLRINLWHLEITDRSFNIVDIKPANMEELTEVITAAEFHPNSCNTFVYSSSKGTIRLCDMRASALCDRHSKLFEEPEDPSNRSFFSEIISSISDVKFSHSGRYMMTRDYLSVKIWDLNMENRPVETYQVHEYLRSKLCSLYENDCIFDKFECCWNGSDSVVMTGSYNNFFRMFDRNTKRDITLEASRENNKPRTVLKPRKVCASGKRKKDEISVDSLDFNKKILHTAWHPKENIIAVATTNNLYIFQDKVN
B2: Ras-related protein Ral-A (Homo sapiens), P11233 (parent)
chain: MAANKPKGQNSLALHKVIMVGSGGVGKSALTLQFMYDEFVEDYEPTKADSYRKKVVLDGEEVQIDILDTAGQEDYAAIRDNYFRSGEGFLCVFSITEMESFAATADFREQILRVKEDENVPFLLVGNKSDLEDKRQVSVEEAKNRAEQWNVNYVETSAKTRANVDKVFFDLMREIRARKMEDSKEKNGKKKRKSLAKRIRERCCIL
B3: Serine/threonine-protein phosphatase 2A 65 kDa regulatory subunit A beta isoform (Homo sapiens), P30154 (parent)
chain: B1 chain
B4: Serine/threonine-protein phosphatase 2A 65 kDa regulatory subunit A beta isoform (Homo sapiens), P30154 (parent)
chain: B1 chain
partner: B2 chain

Variants of: B1
Conditions: with 2aba_human PPP2R2A

Effect of a mutation on the interaction, decreasing interaction:
L101P;V448A

Variants of: B2
Conditions: with 2aab_human PPP2R1B

Effect of a mutation on the interaction, decreasing interaction:
MAANKPKGQNSLALHKVIMVGSGGVGKSALTLQFMYDEFVEDYEPTKADSYRKKVVLDGEEVQIDILDTAGQEDYAAIRDNYFRSGEGFLCVFSITEMESFAATADFREQILRVKEDENVPFLLVGNKSDLEDKRQVSVEEAKNRAEQWNVNYVETSAKTRANVDKVFFDLMREIRARKMEDSKEKNGKKKRKALAKRIRERCCIL [S194A]
MAANKPKGQNSLALHKVIMVGSGGVGKSALTLQFMYDEFVEDYEPTKADSYRKKVVLDGEEVQIDILDTAGQEDYAAIRDNYFRSGEGFLCVFSITEMESFAATADFREQILRVKEDENVPFLLVGNKSDLEDKRQVSVEEAKNRAEQWNVNYVETSAKTRANVDKVFFDLMREIRARKMEDAKEKNGKKKRKSLAKRIRERCCIL [S183A]

Variants of: B3
Conditions: with 2a5g_human PPP2R5C

Effect of a mutation on the interaction, decreasing interaction:
D504G
K343E
V545A
V448A
L101P;V448A
L101P

Variants of: B3
Conditions: with 2a5d_human PPP2R5D

Effect of a mutation on the interaction, decreasing interaction:
V545A
V448A
L101P;V448A
L101P

Variants of: B3
Conditions: with pp2aa_human PPP2CA

Effect of a mutation on the interaction, decreasing interaction:
V448A
L101P;V448A
L101P

Variants of: B3
Conditions: with 2a5a_human PPP2R5A

Effect of a mutation on the interaction, decreasing interaction:
V448A
L101P;V448A
L101P

Variants of: B4
Conditions: with rala_human RALA

Effect of a mutation on the interaction, decreasing interaction:
V448A
G8R
V545A
